Broadly, the stoichiometry N is the number of molecules, sites or subunits per partner or assembly.

One protein from publication PMC3785714 (Biochemical Society transactions, 2012) can be followed below.

This series deals with the molecule itself.

B1: p150CC1 (residues 221-509) of dynactin p150Glued (domain or fragment, UniProt P13496 221-509, looked up)
chain: ALLEAQKTSAELQAQLADLTEKLETLKQRRNEDKERLREFDKMKIQFEQLQEFRTKIMGAQASLQKELLRAKQEAKDAIEAKEQHAQEMADLADNVEMITLDKEMAEEKADTLQLELESSKERIEELEVDLELLRSEMQNKAESAIGNISGGGDSPGLSTYEFKQLEQQNIRLKETLVRLRDLSAHDKHDIQKLSKELEMKRSEVTELERTKEKLSAKIDELEAIVADLQEQVDAALGAEEMVEQLAEKKMELEDKVKLLEEEIAQLEALEEVHEQLVESNHELELDLR
As for B1, the “stoichiometry N” value came to 2.
